# According to PMC5498992:
# Where “and” joins values, the source holds several entries; their conditions need not be identical. Equal entries are not always repeated.
# B1: ToxS periplasmic domain (ToxSp), purified, cleaved from the chitin binding domain-intein tag, P24003 25-173 (domain or fragment)
# chain: SDFKLEQVLTSREWQSKMVSLIKTNSNRPAMGPLSRVDVTSNVKYLPNGTYLRVSIVKLFSDDNSAESVINISEFGEWDISDNYLLVTPVEFKDISSNQSKDFTDEQLQLITQLFKMDAQQSRRVDIVNERTILFTSLSHGSTVLFSNS
# modifications: not checked
# Molecular target: chitin binding domain-intein fusion of the ToxR periplasmic domain (CBDI-ToxRp) (V. cholerae El Tor N16961), P15795
# Experiment: pull-down
binder,measurement,value
B1,percent of input pulled down,6% and 9%
